According to patent US20140308283A1 (TORAY INDUSTRIES, published 2014):

Experiments:
[1] = biological target: T1, polypeptide of SEQ ID NO: 266 (human); test: ELISA on immobilised synthetic CAPRIN-1 peptides
T1 peptide: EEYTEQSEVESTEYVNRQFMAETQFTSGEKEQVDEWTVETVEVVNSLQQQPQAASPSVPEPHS
Protocol: (§1) Then, the solution in each well was discarded, and each well was washed six times with PBST.
(§2) A TMB substrate solution (manufactured by Thermo Fisher Scientific Inc.) was added thereto at a concentration of 100 μl/well and left standing for 15 to 30 minutes to cause color reaction. After the color development, the reaction was terminated by the addition of 1 N sulfuric acid at a concentration of 100 μl/well. The absorbance was measured at 450 nm and 595 nm using an absorption spectrometer. As a result, a polypeptide of SEQ ID NO: 266 was identified as a partial CAPRIN-1 sequence recognized by all of the anti-CAPRIN-1 antibodies human-chicken chimeric monoclonal antibody #1 and anti-CAPRIN-1 monoclonal antibodies #1 to #5. In the polypeptide of SEQ ID NO: 266, a peptide of SEQ ID NO: 267 was identified as a partial sequence recognized by the human-chicken chimeric monoclonal antibody #1 and the mouse monoclonal antibodies #3 and #4. In the polypeptide of SEQ ID NO: 266, a peptide of SEQ ID NO: 268 was identified as a partial sequence recognized by the mouse monoclonal antibodies #1, #2, and #5. […] Also, a polypeptide comprising the amino acid sequence of SEQ ID NO: 270 was identified as a partial CAPRIN-1 sequence recognized by all of the anti-CAPRIN-1 monoclonal antibodies #6, #7, and #8. […] In addition, a polypeptide comprising the amino acid sequence of SEQ ID NO: 272 was identified as a partial CAPRIN-1 sequence recognized by all of the anti-CAPRIN-1 monoclonal antibodies #9, #10, and #11. […] In addition, a polypeptide comprising the amino acid sequence of SEQ ID NO: 269 was identified as a partial CAPRIN-1 sequence recognized by the human-chicken chimeric monoclonal antibody #3.

[2] = biological target: T2, peptide of SEQ ID NO: 267 (human); test: ELISA on immobilised synthetic CAPRIN-1 peptides
T2 peptide: QQPQAASPSVPE
Protocol: as §1, §2

[3] = biological target: T3, polypeptide comprising the amino acid sequence of SEQ ID NO: 269 (human); test: ELISA on immobilised synthetic CAPRIN-1 peptides
T3 peptide: PPVNEPETLKQQNQYQAS
Protocol: as §1, §2

[4] = biological target: T4, CAPRIN-1 protein expressed on the cell membrane surface of human cancer cell lines (human, UniProt Q14444 2-709); test: cell-based or functional assay
T4 sequence (looked up): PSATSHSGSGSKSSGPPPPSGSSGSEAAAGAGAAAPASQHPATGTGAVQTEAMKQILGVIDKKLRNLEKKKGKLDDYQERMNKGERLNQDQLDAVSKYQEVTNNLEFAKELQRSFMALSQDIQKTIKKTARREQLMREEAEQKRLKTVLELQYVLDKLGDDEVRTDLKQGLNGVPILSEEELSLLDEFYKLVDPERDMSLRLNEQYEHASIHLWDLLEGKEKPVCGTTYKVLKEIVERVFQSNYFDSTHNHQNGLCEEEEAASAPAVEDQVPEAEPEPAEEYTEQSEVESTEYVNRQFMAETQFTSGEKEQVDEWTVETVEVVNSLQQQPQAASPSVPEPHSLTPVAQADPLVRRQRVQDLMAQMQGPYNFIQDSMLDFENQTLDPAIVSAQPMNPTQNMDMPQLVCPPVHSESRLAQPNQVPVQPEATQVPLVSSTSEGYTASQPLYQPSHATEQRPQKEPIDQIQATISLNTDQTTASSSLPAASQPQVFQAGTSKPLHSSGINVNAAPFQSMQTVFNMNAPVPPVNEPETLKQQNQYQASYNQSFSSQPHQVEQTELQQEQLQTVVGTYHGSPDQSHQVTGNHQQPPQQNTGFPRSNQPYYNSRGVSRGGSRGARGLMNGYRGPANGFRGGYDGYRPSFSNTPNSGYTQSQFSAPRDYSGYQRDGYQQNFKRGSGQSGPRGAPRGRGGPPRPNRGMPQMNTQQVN

[5] = biological target: T4, CAPRIN-1 protein expressed on the cell …; test: flow cytometry on Capan-2, MIAPaCa-2, PANC-1 and BxPC-3 cells, vs isotype control
Protocol: Next, four pancreatic cancer cell lines (Capan-2, MIAPaCa-2, PANC-1, and BxPC-3) confirmed to have CAPRIN-1 gene expression were examined for their expression of CAPRIN-1 protein on the cell surface. 10⁶ cells of each cell line were centrifuged in each 1.5-ml microcentrifuge tube. The cancer cell surface-reactive anti-CAPRIN-1 mouse monoclonal antibodies #1 to #22 prepared in Example 4 and the culture supernatant (100 μl) containing the anti-CAPRIN-1 mouse-chicken chimeric antibody #1, #2, or #3 prepared in the preceding paragraph (2) were separately added to the tubes and left standing for 1 hour on ice. After washing with PBS, the cells were suspended in FITC-labeled goat anti-mouse IgG antibodies (manufactured by Invitrogen Corp.) diluted 500-fold with PBS containing 0.1% FBS and left standing for 1 hour on ice. After washing with PBS, the fluorescence intensity was measured using FACSCalibur (Becton, Dickinson and Company). On the other hand, the same operation as above was performed using isotype control antibodies, instead of the anti-CAPRIN-1 mouse monoclonal antibodies #1 to #22 and the culture supernatant containing the mouse-chicken chimeric antibody #1, #2, or #3, to prepare a control. As a result, all the cells supplemented with any of the monoclonal antibodies #1 to #22 and the mouse-chicken chimeric antibodies #1, #2, and #3 had fluorescence intensity at least 20% stronger than that of the control. […] The above rate of enhancement in fluorescence intensity was indicated by the rate of increase in mean fluorescence intensity (MFI) in each cell line and calculated according to the following expression: […]

[6] = biological target: T5, peptide of SEQ ID NO: 268 (human); test: ELISA on immobilised synthetic CAPRIN-1 peptides
T5 peptide: FTSGEKEQVDEW
Protocol: as §1, §2

B1: human-chicken chimeric antibody #1 (antibody, human IgG1, kappa, V domains shown)
VH: AVTLDESGGGLQMSRGGLSLVCKASGFDFSSYQMNWIRQAPGKGLEFVAAINKFGNSTGHGAAVKGRVTISRDNGQSTVRLQLNNLRAEDTAIYFCTKHAYGYCGSGTWCAAGEIDAWGHGTEVIVSS
VL: QAASTQPSSVSANPGETVEITCSGGGSYSYGWFQQKSPGSAPVTVIYYNNKRPSDIPSRFSGSKSGSTGTLTITGVQADDEAVYYCGSGDSTDTAVFGAGTTLTVLG
notes: also called human-chicken chimeric monoclonal antibody #1
B1: binds [1]; binds [2].

B2: human-chicken chimeric antibody #3 (antibody, human IgG1, kappa, V domains shown)
VH: AVTLDESGGGLQTPGGALSLVCKASGFTFSGYDMLWVRQAPGKGLEWVAGIGSTGGGTDYGAAVKGRATISRDNGQSTVRLQLNNLRAEDTATYYCAKVAGGCNSGYCRDSPGSIDAWGHGTEVIVSA
VL: AVTQQPASVSANPGETVKITCSGGGSRNYYGWYQQKSPGSVPVTVIYYDDQRPSNIPSRFSGALSGSTSTLTITGVQADDEAVYFCGSADSNTYEGSFGAGTTLTVLT
notes: also called human-chicken chimeric monoclonal antibody #3
For B2, the binding result [3] was “binds” and the “cytotoxic activity (ADCC) against MIAPaCa-2 and Capan-2” value (shortened to “cytotoxic activity (ADCC)”) [4] was at least 10%.

B3: mouse monoclonal antibody #5 (antibody, V domains shown)
VH: DAELVKPGASVKISCKASGYTFTDHSIHWVQQKPEQGLEWIGYISPGNGNIKYNEKFKGKATLTADKSSSTAYMQLNSLTSEDSAVYFCKRSLGRGGPYYFDYWGQGTTVTVSS
VL: DIVLTQAAPSLPVTPGESVSISCRSSKSLLHSNGNTYLYWFLQRPGQSPQLLIYRMSNLASGVPDRFSGSGSGTAFTLRISRVEAEDVGVYYCMQHREYPVTFGSGPN
notes: Mouse hybridoma antibody; also called anti-CAPRIN-1 mouse monoclonal antibody #5
With B3 the “rate of increase in mean fluorescence intensity” value [5] was at least 20%, the binding result [6] was “binds” and the binding result [1] was “binds”. For the same binder, the “cytotoxic activity (ADCC)” value [4] was at least 10%.

B4: mouse monoclonal antibody #4 (antibody, V domains shown)
VH: GAELVRSGASVKMSCKASGYSFTDYNMYWVKQTPGQGLEWIGYIYPGNGGTNYNQKFKGKATLTADTSSSTAYMQISSLTSEDSAVYFCARDYDDGGYAMDYWGQGTTVTVSS
VL: DIQMTQSPASLSASVGETVTITCRASGNIHNYLTWYQQKQGKSPQLLVYNAKTLADGVPSRFSGSGSGTQYSLKINRLQPEDFGSYYCQHFWNIPWTFGGGTKLNSR
notes: Mouse hybridoma antibody; also called anti-CAPRIN-1 mouse monoclonal antibody #4
In the case of B4, the “rate of increase in mean fluorescence intensity” value [5] is reported as at least 20%, the binding result [1] is reported as “binds” and the binding result [2] is reported as “binds”. For the same binder, the “cytotoxic activity (ADCC)” value [4] was at least 10%.
